B1: glmS ribozyme (parent)
chain: AUAAAAGCGCCAGAACUACAGAAAUGUAGUUGACGAGGAGGAGGUUUAUCGAAUUUUCGGCGGAUGCCUCCAAA

± gives the standard error. For some assays here: Fewer inactive variants are shown than the library holds.

Holding throughout (details): with glucosamine-6-phosphate
Data set [1] covers variants of B1. In words: kcat; higher = faster cleavage; RNA array. The procedure, abridged: (§1)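 Weighted Michaelis–Menten fits across concentrations supplied kcat and KM, based on kobs from one- or two-exponential decay fits to normalised per-tile medians. The data came from barcoded ribozyme variants transcribed in situ by E. coli RNA polymerase on sequenced MiSeq chips and tracked at 37 °C by a hybridised Cy3 probe. Glucosamine-6-phosphate (40 μM to 10 mM) in HEPES/KCl/Mg(OAc)2 buffer was flowed in.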

Variants of B1 are the subject of data set [2]. As to the kind of experiment: self-cleavage kobs at 2500 uM GlcN6P; higher = faster cleavage; RNA array. The gist of the method: as §1
Variants of B1 are the subject of data set [3]. As to the kind of experiment: self-cleavage kobs at 10000 uM GlcN6P; higher = faster cleavage; RNA array. The procedure, abridged: as §1
Data set [4] covers variants of B1. As to the kind of experiment: self-cleavage kobs at 640 uM GlcN6P; higher = faster cleavage; RNA array. The gist of the method:
as §1

Data set [5] covers variants of B1. As to the kind of experiment: self-cleavage kobs at 40 uM GlcN6P; higher = faster cleavage; RNA array. The procedure, abridged:
as §1

The variants in data set [6] derive from B1. In words: KM; higher = weaker cofactor use; RNA array. The procedure, abridged:
as §1

Data set [7] covers variants of B1. In words: self-cleavage kobs at 160 uM GlcN6P; higher = faster cleavage; RNA array. The gist of the method:
as §1

Turning to C68U C70U, in data set [1], the kcat is 2.24e-05 ± 7.8e-06 s⁻¹. Besides, the “self-cleavage kobs at 2500 uM GlcN6P” value in data set [2] was found to be 3.68e-05 ± 7.6e-06 s⁻¹. Also, the “self-cleavage kobs at 10000 uM GlcN6P” value in data set [3] worked out at 1.88e-05 ± 3.8e-06 s⁻¹.
With U31A G63U U69G, the kcat in data set [1] amounted to 3.2e-05 ± 9.9e-06 s⁻¹.
Take A6U U55G: the kcat in data set [1] stood at 0.00137 ± 0.00067 s⁻¹. Also, in data set [4], the “self-cleavage kobs at 640 uM GlcN6P” value stood at 4.48e-05 ± 1e-05 s⁻¹. In data set [2], the “self-cleavage kobs at 2500 uM GlcN6P” value was 0.000118 ± 1.9e-05 s⁻¹. Moreover, the “self-cleavage kobs at 10000 uM GlcN6P” value in data set [3] came to 0.000416 ± 6.4e-05 s⁻¹.
Consider G29C A52U C70G, for which, in data set [1], the kcat was determined as 2.41e-05 ± 5.5e-06 s⁻¹. Moreover, the “self-cleavage kobs at 40 uM GlcN6P” value in data set [5] was less than 1e-05 s⁻¹.
As to A15G C67G, the kcat in data set [1] stood at 0.00126 ± 0.0001 s⁻¹. Besides, the KM in data set [6] came to 2600 ± 330 µM. In addition, the “self-cleavage kobs at 160 uM GlcN6P” value in data set [7] worked out at 7.63e-05 ± 1.2e-05 s⁻¹. Moreover, the “self-cleavage kobs at 640 uM GlcN6P” value in data set [4] amounted to 0.000243 ± 2.4e-05 s⁻¹. Moreover, the “self-cleavage kobs at 2500 uM GlcN6P” value in data set [2] was determined as 0.000654 ± 6.3e-05 s⁻¹. Also, the “self-cleavage kobs at 10000 uM GlcN6P” value in data set [3] was found to be 0.000966 ± 0.00011 s⁻¹.
Regarding U31G G62U C71G, the kcat in data set [1] is less than 1e-05 s⁻¹.
Turning to A12C A53U, the turnover number (kcat) in data set [1] stood at 0.015 ± 0.0038 s⁻¹. The KM in data set [6] is 2160 ± 740 µM. For the same variant, the “self-cleavage kobs at 40 uM GlcN6P” value in data set [5] was 0.000376 ± 4.9e-05 s⁻¹. For the same variant, the “self-cleavage kobs at 160 uM GlcN6P” value in data set [7] worked out at 0.000867 ± 0.00013 s⁻¹. Further, in data set [4], the “self-cleavage kobs at 640 uM GlcN6P” value turned out to be 0.00317 ± 0.00041 s⁻¹. The “self-cleavage kobs at 2500 uM GlcN6P” value in data set [2] is 0.0103 ± 0.0019 s⁻¹. Also, the “self-cleavage kobs at 10000 uM GlcN6P” value in data set [3] was determined as 0.0121 ± 0.0016 s⁻¹.
As for U31G A52G, the kcat in data set [1] was 0.000431 ± 4.6e-05 s⁻¹. The KM in data set [6] worked out at 2820 ± 530 µM. Also, the “self-cleavage kobs at 640 uM GlcN6P” value in data set [4] amounted to 8.36e-05 ± 1.2e-05 s⁻¹. For the same variant, the “self-cleavage kobs at 2500 uM GlcN6P” value in data set [2] came out at 0.000178 ± 3.1e-05 s⁻¹. Moreover, the “self-cleavage kobs at 10000 uM GlcN6P” value in data set [3] is 0.000352 ± 4.6e-05 s⁻¹.
On to U54G C58G, for which the kcat in data set [1] is 0.000237 ± 2.6e-05 s⁻¹. Further, the Michaelis-Menten constant (KM) in data set [6] turned out to be 4280 ± 1000 µM. In addition, in data set [2], the “self-cleavage kobs at 2500 uM GlcN6P” value was found to be 9.35e-05 ± 1.7e-05 s⁻¹. The “self-cleavage kobs at 10000 uM GlcN6P” value in data set [3] was 0.000164 ± 2e-05 s⁻¹.
In the case of G51U C68U, the kcat in data set [1] is less than 1e-05 s⁻¹.
For the variant A53C C71A, the turnover number (kcat) in data set [1] stood at 0.000797 ± 0.00016 s⁻¹. The KM in data set [6] came out at 1610 ± 520 µM. In addition, the “self-cleavage kobs at 160 uM GlcN6P” value in data set [7] came to 6.89e-05 ± 1.5e-05 s⁻¹. In addition, the “self-cleavage kobs at 640 uM GlcN6P” value in data set [4] came out at 0.000254 ± 0.00011 s⁻¹. Besides, the “self-cleavage kobs at 2500 uM GlcN6P” value in data set [2] is 0.000705 ± 0.00017 s⁻¹. Moreover, the “self-cleavage kobs at 10000 uM GlcN6P” value in data set [3] was 0.000613 ± 0.00013 s⁻¹.
For A52G U57C, the kcat in data set [1] was 0.000378 ± 1.3e-05 s⁻¹. Also, the Michaelis constant (KM) in data set [6] was found to be 1790 ± 110 µM. Besides, the “self-cleavage kobs at 160 uM GlcN6P” value in data set [7] turned out to be 2.83e-05 ± 1.3e-05 s⁻¹. In addition, the “self-cleavage kobs at 640 uM GlcN6P” value in data set [4] worked out at 9.94e-05 ± 1e-05 s⁻¹. The “self-cleavage kobs at 2500 uM GlcN6P” value in data set [2] came to 0.000227 ± 3.1e-05 s⁻¹. In data set [3], the “self-cleavage kobs at 10000 uM GlcN6P” value was determined as 0.000314 ± 4.4e-05 s⁻¹.
Turning to A14U U30G, the kcat in data set [1] was 0.00494 ± 0.00089 s⁻¹. Besides, the KM in data set [6] was determined as 2220 ± 540 µM. In addition, the “self-cleavage kobs at 40 uM GlcN6P” value in data set [5] came to 0.000104 ± 8.8e-06 s⁻¹. For the same variant, in data set [7], the “self-cleavage kobs at 160 uM GlcN6P” value worked out at 0.000282 ± 3.6e-05 s⁻¹. For the same variant, the “self-cleavage kobs at 640 uM GlcN6P” value in data set [4] is 0.000998 ± 0.0001 s⁻¹. Moreover, the “self-cleavage kobs at 2500 uM GlcN6P” value in data set [2] was 0.0033 ± 0.00052 s⁻¹. Further, the “self-cleavage kobs at 10000 uM GlcN6P” value in data set [3] is 0.00404 ± 0.00036 s⁻¹.
With A14G U30C, the kcat in data set [1] is 0.00152 ± 0.00022 s⁻¹. Moreover, in data set [6], the KM was determined as 1880 ± 500 µM. Also, in data set [5], the “self-cleavage kobs at 40 uM GlcN6P” value was 3.48e-05 ± 8e-06 s⁻¹. In data set [7], the “self-cleavage kobs at 160 uM GlcN6P” value worked out at 9.58e-05 ± 1.9e-05 s⁻¹. The “self-cleavage kobs at 640 uM GlcN6P” value in data set [4] is 0.000552 ± 0.00011 s⁻¹. Also, the “self-cleavage kobs at 2500 uM GlcN6P” value in data set [2] came out at 0.000958 ± 0.00012 s⁻¹. Further, the “self-cleavage kobs at 10000 uM GlcN6P” value in data set [3] was 0.00122 ± 0.00013 s⁻¹.
As for G51A A53C, the kcat in data set [1] is less than 1e-05 s⁻¹. The “self-cleavage kobs at 640 uM GlcN6P” value in data set [4] is less than 1e-05 s⁻¹.
Consider U46C C67G, for which, in data set [1], the kcat worked out at 0.000658 ± 5.5e-05 s⁻¹. Further, the KM in data set [6] is 1560 ± 320 µM. Besides, the “self-cleavage kobs at 160 uM GlcN6P” value in data set [7] was found to be 6.94e-05 ± 1.9e-05 s⁻¹. In addition, the “self-cleavage kobs at 640 uM GlcN6P” value in data set [4] is 0.000154 ± 5.6e-05 s⁻¹. Moreover, the “self-cleavage kobs at 2500 uM GlcN6P” value in data set [2] came to 0.000431 ± 6.7e-05 s⁻¹. The “self-cleavage kobs at 10000 uM GlcN6P” value in data set [3] was 0.000561 ± 6.7e-05 s⁻¹.
On to G51C U54C, for which the kcat in data set [1] is less than 1e-05 s⁻¹. In data set [4], the “self-cleavage kobs at 640 uM GlcN6P” value is less than 1e-05 s⁻¹. Moreover, the “self-cleavage kobs at 2500 uM GlcN6P” value in data set [2] was less than 1e-05 s⁻¹.
As to A6C U47A, the kcat in data set [1] came out at 0.0001 ± 5.6e-06 s⁻¹. Also, the Michaelis constant (KM) in data set [6] worked out at 6300 ± 770 µM. The “self-cleavage kobs at 10000 uM GlcN6P” value in data set [3] came to 6.15e-05 ± 1.4e-05 s⁻¹.
